Article PMC2248197
Values joined by “and” are separate entries in the source; they are usually repeats but may differ in a detail not shown here. Equal values may be shown once.

Target: Xop411 p09, major capsid subunit (major coat protein) (Xanthomonas oryzae phage Xop411)
Test: SDS-PAGE of virion proteins with LC-MS/MS of the bands

Xop411 p09, major capsid subunit (major coat protein) (natural protein)
stoichiometry N: 2 subunits and 6 subunits
